Experiments:
Cx43 [1] = molecular target: T1, Cx43 (Homo sapiens, UniProt P17302); test: Octanol-induced uncoupling, dual-cell patch clamp, junctional conductance (Gj) in Cx43-expressing N2A cell pairs; format: cell-based, mouse; details: for cells remaining coupled ten minutes after the onset of octanol superfusion: peptide 100 μM in pipette, 1.5 mM octanol, 10 min; for effect on octanol-induced decrease of Gj compared to control (in words): 1.5 mM octanol perfusion
T1 construct: expressed in transfected cells; host or cells: N2a (mouse neuroblastoma) cells, transiently transfected
T1 sequence (P17302 2-382 limits assumed): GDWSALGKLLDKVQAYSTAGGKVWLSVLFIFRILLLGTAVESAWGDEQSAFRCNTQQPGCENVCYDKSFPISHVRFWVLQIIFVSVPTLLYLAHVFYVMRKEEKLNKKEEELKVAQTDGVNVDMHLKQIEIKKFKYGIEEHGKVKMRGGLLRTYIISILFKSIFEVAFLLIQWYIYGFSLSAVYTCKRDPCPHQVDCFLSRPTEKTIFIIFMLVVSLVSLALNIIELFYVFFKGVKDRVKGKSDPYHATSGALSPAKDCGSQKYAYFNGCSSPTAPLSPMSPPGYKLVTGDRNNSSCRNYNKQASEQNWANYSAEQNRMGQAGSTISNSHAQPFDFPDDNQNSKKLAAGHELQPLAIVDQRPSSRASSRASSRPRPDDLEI
Method: FIG. 2. Time course of octanol-induced uncoupling in human Cx43-expressing N2A cells. Cell pairs were recorded with patch pipettes that contained either ZP2778 (0.1 mM; upper curve/trace), or only the internal pipette filling solution (control; lower curve/trace). Experiments were conducted using the dual-cell patch clamp technique, and 1.5 mM octanol perfusion was started at Time=0.
(§1) Patch clamp experiments were conducted in N2a cells transiently transfected with Cx43. In all cases, the dual-whole-cell voltage clamp technique was used to record gap junction currents. Specifics for cell culture, transfection and recordings are described in Shibayama et al. (Identification of a novel peptide that interferes with the chemical regulation of connexin 43. Circ Res 2006 98:1365-72). Octanol superfusion was initiated 5 minutes after patch break and continued for 10 minutes. Concentration of octanol was 1.5 mM in all experiments. Peptides were diluted in the internal pipette solution to a final concentration of 100 μM. A total of 20 experiments were carried out where octanol-induced uncoupling was tested in the absence of peptides. These experiments were averaged, and data used as control for comparison with those series where a given peptide was assessed. Patch clamp experiments were also conducted (cf. FIG. 6 herein) using ventricular myocytes from neonatal Sprague-Dawley rats (rats supplied by Charles River, Mass. USA), isolated and cultured according to Rohr et al. (see Circ. Res. 1991; 68: 114-130, and J. Cardiovasc. Electrophysiol. 1995; 6: 551-568).
Junctional conductance (Gj) was measured in N2a cell pairs expressing Cx43. Patch pipettes were filled with an internal solution containing the specific peptide under study, and the time course and extent of octanol-induced uncoupling was compared to that observed in the absence of the peptide. FIGS. 2-5 show average measurements of junctional conductance and percent of coupled cells recorded at various times after the onset of octanol superfusion for the cyclized peptides ZP2769, ZP2771, ZP2778, ZP2782 and for the dissolution medium (internal pipette solution) used as control. […] For ZP2778 (FIG. 2), 60% of the cells remained coupled, while 20% remained coupled for ZP2782 (FIG. 4).

recombinant rat Cx43CT = recombinant rat Cx43CT (Rattus norvegicus, UniProt P08050); test: Surface plasmon resonance (SPR) binding of peptides to immobilised Cx43CT; details: for binding to the Cx43CT (in words): SPR, FIG. 1 / Table 2; for (ru * 100)/Mw: response normalised to molecular weight
Chain of recombinant rat Cx43CT (P08050 229-382 limits assumed): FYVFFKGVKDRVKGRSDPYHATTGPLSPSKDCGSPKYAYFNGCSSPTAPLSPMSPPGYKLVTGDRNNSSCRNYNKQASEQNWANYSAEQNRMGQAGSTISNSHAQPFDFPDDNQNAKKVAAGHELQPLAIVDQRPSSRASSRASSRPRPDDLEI
Description: FIG. 1. SPR results for compounds (peptides) ZP2769 and ZP2771. Recombinant rat Cx43CT was covalently bound to a carboxylmethyl dextran matrix and used as ligand. Peptides were presented to the bound ligand, and the amplitude of the response was subtracted from that obtained from a control chamber with no ligand. If no change in angle of resonance was observed, this was taken as an indication of absence of binding. The amplitude of the change in angle of resonance (expressed as “response units”) is a function of the molecular mass of the analyte, and for comparison purposes response units were therefore normalized taking into account the molecular weight of the tested compound. Change in angle of incidence of resonance (in “resonance units”) was plotted against time after onset of cyclic peptide exposure. The various curves correspond to different applied concentrations of the peptide in question, as follows:
Compounds of the present invention may be tested for binding to the carboxyl terminal domain of Cx43 using Surface Plasmon Resonance (“SPR”). SPR is a technique that was used to identify the original RXPE sequence (Shibayama et al., “Identification of a Novel Peptide that Interferes with the Chemical Regulation of Connexin-43,” Circ. Res. 98:1365-72 (2006)). The concentration of the compound relative to the amplitude of the response in arbitrary units is measured.
Recombinant Cx43CT is covalently bound to a carboxylmethyl dextran matrix (Salemon et al., “Surface Plasmon Resonance Spectroscopy as a Tool for Investigating the Biochemical and Biophysical Properties of Membrane Protein Systems. II: Applications to Biological Systems,” Biochim. Biophys. Acta 1331(2):131-152 (1997)). Specific peptide compounds are presented and, when feasible, dissociation constants (KD) are calculated from the time course of binding and unbinding of the ligand, using a 1:1 (Langmuir) association and dissociation kinetic model (Biacore software package). In both phases (association and dissociation), the first 5-8 seconds of recording are not included in the fit, to avoid artifacts resulting from peptide distribution within the flow cells (Lang et al., “Surface Plasmon Resonance as a Method to Study the Kinetics and Amplitude of Protein-protein Binding,” in Practical Methods in Cardiovascular Research 936-947 (Stefan Dhein, Friedrich Wilhelm Mohr & Mario Delmar eds., 2005). In the present experiments recombinant rat Cx43CT was covalently bound to a carboxylmethyl-dextran matrix and used as ligand.
Examples of the cyclic peptide compounds of the present invention were presented to the bound ligand, and the amplitude of the response was subtracted from that obtained from a control chamber with no ligand. No change in angle of resonance was taken as an indication of absence of binding. The amplitude of the change in angle of resonance (expressed as “response units”) is a function of the molecular mass of the analyte and for comparison purposes response units were normalized taking account of the molecular weight of the tested compound. Change in angle of incidence of resonance (in “resonance units”) was plotted against time after onset of cyclic peptide exposure.
SPR allows for assessment of ligand-analyte binding in real time, and was used for characterization of two of the cyclic peptide compounds of the present invention. Cx43CT was covalently bound to the matrix of a sensor chip. […] In FIG. 1, the change in angle of incidence of resonance (in “resonance units”) is plotted against time after onset of cyclic peptide exposure. Different concentrations were applied, as indicated.

Cx43 [2] = molecular target: T1, Cx43; test: Acidification-induced uncoupling (pH 6.2), dual-cell patch clamp in Cx43-expressing N2A cell pairs; details: peptide 0.1 mM in patch pipette, N2A cells
Method: FIG. 6. Upper graph: Time course of acidification-induced uncoupling in human Cx43-expressing N2A cells. Cell pairs were recorded with patch pipettes that contained either ZP2771 (0.1 mM; upper curve), or only the internal pipette filling solution buffered to pH 6.2 (control; lower curve). Experiments were conducted using the dual-cell patch clamp technique.
as §1, with “Patch clamp experiments were also conducted (cf. FIG. 6 herein) using ventricular myocytes from neonatal Sprague-Dawley rats (rats supplied by Charles River, Mass. USA), isolated and cultured according to Rohr et al. (see Circ. Res. 1991; 68: 114-130, and J. Cardiovasc. Electrophysiol. 1995; 6: 551-568).” left out

[3] = test system: neonatal rat ventricular cardiac myocytes; test: Acidification-induced uncoupling (pH 6.2), dual-cell patch clamp in neonatal rat ventricular cardiac myocytes; format: cell-based; details: peptide 0.1 mM buffered to pH 6.2
Method: Lower graph: Time course of acidification-induced uncoupling in neonatal rat ventricular cardiac myocytes. Cell pairs were recorded with patch pipettes that contained (i) ZP2771 (0.1 mM, buffered to pH 6.2; uppermost curve; filled square symbols), (ii) linear peptide RRPPYR (0.1 mM buffered to pH 6.2; middle curve; filled triangle symbols), or (iii) only the internal pipette filling solution buffered to pH 6.2 (lowermost curve; filled circle symbols). Experiments were conducted using the dual-cell patch clamp technique.
as §1

[4] = peptide 0.1 mM in patch pipette

Substance | cells remaining coupled ten minutes after the onset of octanol superfusion (Cx43 [1]) | effect on octanol-induced decrease of Gj compared to control (in words) (Cx43 [1]; [4]) | binding to the Cx43CT (in words) (recombinant rat Cx43CT) | Resonance Units (ru) (recombinant rat Cx43CT; peptide conc 0.063 mM) | (ru * 100)/Mw (recombinant rat Cx43CT; peptide conc 0.063 mM) | Resonance Units (ru) (recombinant rat Cx43CT; peptide conc 0.125 mM) | (ru * 100)/Mw (recombinant rat Cx43CT; peptide conc 0.125 mM) | Resonance Units (ru) (recombinant rat Cx43CT; peptide conc 0.250 mM) | (ru * 100)/Mw (recombinant rat Cx43CT; peptide conc 0.250 mM) | Resonance Units (ru) (recombinant rat Cx43CT; peptide conc 0.500 mM) | (ru * 100)/Mw (recombinant rat Cx43CT; peptide conc 0.500 mM) | Resonance Units (ru) (recombinant rat Cx43CT; peptide conc 1.000 mM) | (ru * 100)/Mw (recombinant rat Cx43CT; peptide conc 1.000 mM) | Gj fifteen minutes after patch break [3] | other results
cyclo(RRPPWN) [ZP2782] | 20% | reduction in the decrease of Gj | – | – | – | – | – | – | – | – | – | – | – | – | –
Cyclo(RRPPYRQ) (cyclic) [ZP2771] | all cells remained coupled | significantly (p<0.05) prevented the decrease of Gj | significant binding | 192.4 ru | 20.18 | 323.6 ru | 33.94 | 574.0 ru | 60.20 | 896.0 ru | 93.97 | 1253.0 ru | 131.41 | approximately 0.47 | Gj at the end of the experiment (Cx43 [1]; peptide 0.1 mM in patch pipette, after 10 minutes of 1.5 mM octanol perfusion): approximately 0.65; Resonance Units (ru) (recombinant rat Cx43CT; peptide conc 0.008 mM): 27.6 ru; (ru * 100)/Mw (recombinant rat Cx43CT; peptide conc 0.008 mM): 2.89; Resonance Units (ru) (recombinant rat Cx43CT; peptide conc 0.016 mM): 58.1 ru; (ru * 100)/Mw (recombinant rat Cx43CT; peptide conc 0.016 mM): 6.09; Resonance Units (ru) (recombinant rat Cx43CT; peptide conc 0.031 mM): 95.8 ru; (ru * 100)/Mw (recombinant rat Cx43CT; peptide conc 0.031 mM): 10.05; Gj fifteen minutes (900 sec) after patch break (Cx43 [2]): approximately 0.49; effect on acidification-induced decrease of Gj compared to control (in words) (Cx43 [2]): significantly (p=0.002) prevented the decrease of Gj; effect on acidification-induced decrease of Gj compared to linear peptide and control (in words) [3]: significantly (p=0.006) prevented the decrease of Gj
cyclo(RRPPYN) [ZP2778] | 60% | significantly (p<0.05) prevented the decrease of Gj | – | – | – | – | – | – | – | – | – | – | – | – | –
cyclo(RRPPYQ) [ZP2769] | all cells remained coupled | marked reduction in the decrease of Gj | significant binding | 18.6 ru | 2.33 | 29.6 ru | 3.71 | 55.8 ru | 6.99 | 101.9 ru | 12.77 | 196.2 ru | 24.59 | – | –
RRPPYR [reference compound] | – | – | – | – | – | – | – | – | – | – | – | – | – | approximately 0.17 | –

Reference: US20120264693A1, “COMPOUNDS ACTING AS PEPTIDE GAP JUNCTION MODULATORS, AND USES THEREOF” (Zealand Pharma A/S, priority 2009, published 2012)
